In the DeepSol protein solubility set:

Assay: soluble on expression in E. coli; label from the status in PepcDB or PDB records

Row | Sequence | soluble on expression in E. coli
1 | MGSDKIHHHHHHMLPRQPRSRTSADCSGFPARYGGWLALLLSRLSRSAGKEPGCERGARPRTAMRGSHGSISCIATGCLLSSSAMIWTISDLHLSFARPKPMDIFGPGWKDHPERIAQAWRERVAATDWVLIAGDISWAMKLPDALLDLQWIDALPGTKVLIRGNHDYWCPRRVNSIRRHLPPSLRLIGADALDIGEAVVCGTRGWITPETPGFTETDLPIYQRELGLLERALAAGQALAVNKPLIVMIHFPPFVNRQPTEFSRRIAASGAAACIYGHLHRRYDWDNAVQGRVDGVYYQLTACDYLGFGPVAVRGLNGWSGG | not soluble
2 | MSLQTSPDMFINRELSWLRFNSRVLDQCSKNLPLLEKLKFIAIYCTNLDEFYMIRVAGLKQLFSAGVNASSSDEMTPLQQLKAIRKYLHQEKELLERYFNEITSELEKENLFIKHYENLDENLKQKCDEYFFSNIFPVIVPIAVDATHPFPHLNNLSFSLAVKICDKAHPELVKFGMIRIPRVLPRFYEVSANIYVPIESIVHQHAEEIFPGYKLLASAAFRVTRNADMVIEEEEADDFMMILEQGLKLRRKGAFVRLQIQKDADEQIVEFLNTHMKIFHKDVYEYSILLNLPSLWQIAGNKTFTHLLSPLYTPKTLPPFDENLSIFDAVEKEDILIIQPFESFDPVYKFIKEASKDPEVISIRMTLYRVEKNSNIVQALIDAASDGKQVTVMVELKARFDEENNLHWAKALENAGAHVIYGITGFKVHAKVSQVIRKQGDKLKFYMHLSTGNYNASSAKIYTDVSYFTSKAEFARDTTSFFHILSGFSKNRRLQTLSMSPNQIKEKVLEMIRIETSKKNEGVIVAKMNSLVDSDIIQALYEASMEGVQIDLIIRGICCLKPDEEYSKNIRVRSIIGKYLEHARVFYFKHSEPNYFISSADWMPRNLERRLELMTPIYDERSKAKLAQFLRLQLSDNVLAYELKNNGEYEKIPSSEKIIDSQQTLEEYVSKIYKTLKKDTDQSRATHLASKLFKENEGHHHHHH | soluble
3 | MSLMSKPQITIKDIARELGVSPSTVSRALKDNPDISQETRDAIHKYAREHNYKPNVLALNLRTSRSNTIGVIIPQLVHHFFSCVLSGIERTAAEAGYNILVAQSNEEYEREVKIVHSFLAARVCGVITSLAKDTSRYDHYQELLDNNIPIVFYDRICTGINTERVVVDDYAGSFAAVEYMIQTGCKRIFFYSAAPHLEISKNRRNGYMDAMKKYRIPVDQSMIKLCDSREKAIAITPALLERPDHPDGFFAINDETASGILYSCKLTGRKVPDEVSICGFTDGAIAQSTDPKLTTVEQHGEEVGKSTIRLLIDKLEGNDEGKSGNKIVRTNLVVRGTTKEGHHHHHH | soluble
4 | SLRLLLELKALNSIDKKQLSNYLIQGFIYNILKNTEYSWLHNWKKEKYFNFTLIPKKDIIENKRYYLIISSPDKRFIEVLHNKIKDLDIITIGLAQFQLRKTKKFDPKLRFPWVTITPIVLREGKIVILKGDKYYKVFVKRLEELKKYNLIKKKEPILEEPIEISLNQIKDGWKIIDVKDRYYDFRNKSFSAFSNWLRDLKEQSLRKYNNFCGKNFYFEEAIFEGFTFYKTVSIRIRINRGEAVYIGTLWKELNVYRKLDKEEREFYKFLYDCGLGSLNSMGFGFVNTKKNSAR | soluble
5 | ITDHNTLSGVSKMVEACKINKRFLNNKCPQILAGIEISCSDKHHVVVILNNKDMDMMQKAEDWLTNYIISDDGTYLPSLLVIEAFVEIGAIAYIAHFNTSDLFKKPKFLSGLYIDKLFSTKKMEIIGLSNMDSKLAIEEKLSNYTKRKFHFILDEDSHTLEELCTKPFWIK | not soluble
6 | MAFGRRTGKDGGKRKAGHAPVQPADEHVRPEDTVVASAAAASGVEDQEELQGPFDIDDFDDPSVAVLARLDLGSVLIPMPAAGQVQVELTESGVPSAVWVITPNGRYSIAAYAAPKTGGLWREVAGELADSLRKDSAKVSIKDGPWGREVIGIAAGVVRFIGVDGYRWMIRCVVNGPQETVDALTEEAREALADTVVRRGDTPLPVRTPLPVHLPEPMAAQLREAAAAQADTQRQAAAGVARRGAQGSAMQQLRSTTGG | soluble
7 | MQEIIASVDHIKFDLEIAVEQQLGAQPLPFPGMDKSGAAVCEFFLKAACGKGGMCPFRHISGEKTVVCKHWLRGLCKKGDQCEFLHEYDMTKMPECYFYSKFGECSNKECPFLHIDPESKIKDCPWYDRGFCKHGPLCRHRHTRRVICVNYLVGFCPEGPSCKFMHPRFELPMGTTEQPPLPQQTQPPAKQRTPQVIGVMQSQNSSAGNRGPRPLEQVTCYKCGEKGHYANRCTKGHLAFLSGQ | soluble
8 | MGSDKIHHHHHHMAPNYMTEKWREDEEYLSYVEDLLATEEVQKLAEYTQHMHSTRLEHSISVSYHSYKLAKRWNGNARATARAGLLHDLFYYDWRTTKFDEGSHAYVHPRIAAKNAEKITELSDLERDIIIKHMWGATIAPPKYKESYIVTFVDKYCAVKEAALPMTTAMKTKWRQYFGQQSI | not soluble
9 | MNTKCLREKIEKIKPHLLKTASDTLQGYVFGCMIGVFSSSEKPSLRHVHESGKSFAKVSMIYSTTESALQLYGSKNAPLNSLISGAVAGGLGVNDRSKKSILTGAASFGLYTGMSNIFSVQGQK | not soluble
10 | SLKYVDEFRNGDYAKTLVRLIQKLTKKKINIMEICGSHTMAIFRYGIKDILPSNIRLISGPGCPVCVTSQGYIDTALELSLSREVIIATFGDMIRVPGTKTSLMKRKAEGADIKIVYSPMDALTLAENNPLKKVVFLSVGFETTTPITAITILEAKKRGVKNIFFLTSNKMVPPVMRTLVEDKELNITGFLLPGNVSAIIGKKPYEFLSSEYNVSGVVTGFEPLDILKGLKVLIDIINNNASVIVNEYKRVVRDEGNVTALRYIKEVFEVTDSTWRGIGNIEKSGYKINTEYEQFDAVKQFNINYKECDSSSECRCGDILKGKITPIECSLFKKACTPDHPVGSCMVSYEGVCAAYYKFLNT | soluble
11 | MAHHHHHHMDMNFGFCNDAFFEQGNRSTDKEDIEELKKGESNEITKKGNNELGEEKELPKELCVPVTIKLLLSKMMSHEEFKIHDFQISGIIVFGKVCRIKELASAIIFEICDYTGNIEAKYNKDAKNEKVKDHIEGIKVNDHIKVVGVVYSPESKTEQIQISISYINKVEDWVSYFSYFTSDVIYCYLKLLKLKNIYTPNGVNNEDKPWSHVTLDTYYNQLDDIDTDIIKYLHTTSEKYANQQDIFEHLKKYHSEMNIKKSLTKLIEQYDLAQYEDIISIP | not soluble
12 | SMDTNADIYDQTASTFFPNGEAMWKKMVEDLKKAEKFIFLEYYIIEEGLMWNRILDILEQKVAQGVEVKMLYDDIGCMATLTGDYAHRLRQLGIEAHKFNKVIPRLTVAYNNRDHRKILIVDGQIAYTGGVNLADEYINHVERFGYWKDSGIRLDGLAVKALTRLFLTTWYINRGEISDFDQYH | not soluble
13 | MSNEIYTAITIGPICKTLDKARSVKSFWTASYLFSWIMRELLERLPKEERPEGSFEVLSPHRDGKDVPEETSKKVGLFPDRLFAKGELEEEKLQEIKGKIFIELAEKFKNAFQDEKDGITRKIDTESDPKRKRELEEIQSRYSNAALKGEDIRKYLENYLSISCITVELSSDCNILEQLNSYLDTQELFNKASIQTDEDYMELFIEAPNNPFLKAYSQDRAFPSTSEIAVSGWEQDPPKDENGEVEYTQLTSKPGFRNCYKYLAVIKADGDGFGTYIKELKVDEEKEIKENGEKENELSRFTKSFFEFSVEVANELIQKTKAIPVYIGGDDLFLFAPVLEGNVEKDVFNLIKEIDDLFIQKEIGEGLSMSYGVSIFYYKSPMSEAIDIADSMLRKAKEEKEEKEKKKDTVAISIQKHSGQKIEFLLPCKHSTDKCKQETGLYKKATELIRAFKEDDSMLNSLIYWIEDMYETIFTDEVTLYQERINAVFDNFFDEEIHKENEVFFDLLKKFIHSMHHSEDTPRKLKDKKKLLHGILRYCQFVTAKKEK | not soluble
14 | MKQKEYMEYRPLGEEIERIRKGKNIPLRVFDENGVSSRSYQRFVQGNSELRISDLAIIVEILSISPMEMTEKLTPMSKTVLAKEQFNQAIFSKNFQESSRIVADYRAYYEKSSFALGKQEVMYSMLALEYLFNPQTVVTKEEIIALENQILERLINADVYTIFNLKFLALQKNVGLQPFPTSLLFRVLQSVNEREIIDIRSLEIIEQVIIDFLFAAIVSQNVPHILHVLSMFKEYEVGENNWRMILWKKIAEKIEMILTNEEIFADWSIFKEQILLSITLFLPKAKQEFFAGQLEKIEDSLKEIKEN | not soluble
15 | MKGGIVHSDGSYPKDKFEKINGTWYYFDSSGYMLADRWRKHTDGNWYWFDNSGEMATGWKKIADKWYYFNEEGAMKTGWVKYKDTWYYLDAKEGAMVSNAFIQSADGTGWYYLKPDGTLADRPEFTVEPDGLITVK | soluble
16 | LTRFFGDFFLDIEVKLADVAMMYGLNLGYELQDKTLSNIVEEQLGSTPVLGDQFEWQGLQWVIADVVDHQVTKVGLRLPNEEEEGEEED | not soluble
17 | AHHHHHHGSGRIISIVSGKGGTGKTTVTANLSVALGDRGRKVLAVDGDLTMANLSLVLGVDDPDVTLHDVLAGEANVEDAIYMTQFDNVYVLPGAVDWEHVLKADPRKLPEVIKSLKDKFDFILIDCPAGLQLDAMSAMLSGEEALLVTNPEISCLTDTMKVGIVLKKAGLAILGFVLNRYGRSDRDIPPEAAEDVMEVPLLAVIPEDPAIREGTLEGIPAVKYKPESKGAKAFVKLAEEIEKLAGLKARVMY | not soluble
18 | MTETTENVVITIPDKTSFTFHEAATSPSEGEEFVVGHFRELTVKISGSSTSREIKFYAVDENGEKTALSGTNKTDFQLGSSTLNTNEYWDFDIAGLFKVMFEVVSVTGDVTVKGIVVSLEHHHHHH | soluble
19 | MEEMGSRSDTIMVASLNRETKEIKLVSVYRDTLLQLSDGTYNKANAAYAYGGEEEAVAMLNKNLDLNIEHYVSVDFSVLVHVIDALGGIDINVEEAENGMDIIPYLNNYVVEVIKNTGVDSAPFTQLGQQHLNGVQATAYARLRYGGGDDYKRTERQRQVLEQIAIKAQKAKLSTINKIIDKVFDNVKTNFTLTETIAYAKDVKSYIFGETQGFPYESTTADLDVGNSVVATDLASDVTKLHQFLFGENDYTPSSTVQSISEDISNSTYDTGESYDTEYDEYGYSQDYSGYDSGYTDNSYGTGGYQDSGYGDGSSGNGYTEDTGGDYVPPSDGGGTDSGSSDSNSQIPDTGTGDSGDTGGESLELEHHHHHH | soluble
20 | MAADVGQALAFLQQVKTTQGASIYEGLKAALAKVLEDRPVNAVEALETSVLSTPPAANLSVPLVPAASAAAAAAAVAKASLFGDPEPVLDPESGEPIDPDAPNEFECEDVEGDGDLLDGLGVGLGRQEMYAAMLAVKRLGEDAKRGVSTVRFFGKFFGTQADYYVFETTLQSNPDMPEAPEGTIPLEPYGEGVNAYIYFVSNTLGGPLQQLPYVTPEQIKASRLLRRYLTGRLDAPVSAFPAFPGNEANYLRALIARISAATVCCPRGFFTADDDSAELSANDEWVPLKGREMALPVNWSHRYAHLKGQGRTVTHKRDPPDEEEEPEKNFWTAEEMEAGPPPLATLDTDAPLPAATGDKVPPPAWSPVFASASVTTRNQVAGVRSNRWPGAVCACAGRHFTSMYVGWGIKAGGEWSPCPPPPPVPQWGAPAAGVEGGQQLLLECNDLPPKPAPPEEEDE | not soluble
21 | MGSDKIHHHHHHMTTPTPVRAIVPTWLYEGLGLLVANPKVGKSTLMLQIVVAVTKGGEMWGQSVPRAKVLMIDLETNERRLRRKLEQAGAVGIESGWLLYATSWPRGLLGIDEIANTLDRDPEIKLVVIDTLQRFRDPGAGKQNAYAADYEALGPLQQLCRDRPGLAIVCVHHKRKSISDDPIDSISGSAAIAGACDSIWIMSRKGSEYTLHIQGRDWERDEDTFPIERVDQGWQLVNGPRYSSNEAEVLKHLEISGGMTGPQLGEALGIHRVSAYERLKRMADRGLVRFAGEHWHVS | not soluble
